From the supplement of paper PMC10567573

B1: RAD51 (parent)
chain: RFLRMLLRLADEFGVAVVITNQVV

Variants of: B1
Assay: protein stability index of a GFP-peptide fusion (GPS, HEK-293T) (PSI 1-6); higher = more stable
Conditions: c terminus: a fixed tail appended
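Note: lentivirally expressed fusions sorted by FACS into six bins by GFP to DsRed ratio, PSI derived from sequencing read proportions per bin multiplied by bin number.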

Protein stability index of substitutions, site by site:
F2: E 1.51 | N 2.1 | R 1.7 | D 2.27 | K 1.39 | H 1.78 | L 1.6 | Q 2.22 | I 2.4 | T 3.18 | G 1.75 | S 1.91 | W 1.88 | M 2.29 | Y 2.21 | V 1.59 | A 1.89 | P 2.89 | C 1.75
L3: K 2.6 | M 2.19 | Y 2.14 | T 3.74 | R 1.17 | I 1.35 | W 2.03 | S 3.09 | E 3.2 | C 1.78 | G 2.62 | D 2.04 | V 3.98 | N 3.69 | A 4.15 | Q 1.78 | H 2.75
R4: H 2.49 | K 2.82 | Y 2.93 | E 1.23 | N 3.36 | S 3.21 | D 1.96 | C 2.77 | W 1.77 | A 2.24 | M 1.97 | V 1.91 | P 2.39 | T 2.42 | I 2.45 | F 2.58 | Q 1.92
A10: C 1.79 | H 1.64 | F 2.21 | Y 3.62 | T 3.2 | S 1.65 | R 1.65 | K 2.9 | E 2.5 | M 3.27 | N 2.58 | Q 1.82 | I 3.61 | L 3.03 | D 1.97 | V 1.95 | P 2.33
N21: G 3.1 | F 2.06 | C 1.32 | E 1.08 | D 4.17 | A 2.52 | H 1.43
E12: I 3.64 | R 3.5 | Q 3.13 | H 3.24 | T 1.46 | G 1.3 | S 2.08 | A 2.02 | C 3.13 | K 2.42 | V 1.94 | L 2.75 | D 2.48 | P 2.01 | M 2.33 | N 1.68 | F 3.25
A16: H 3.12 | C 1.43 | W 2.44 | R 2.25 | V 1.34 | K 2.4 | N 3.11 | P 1.08 | M 3.12 | S 2.34 | F 1.55 | D 3.29 | I 2.24 | T 1.79 | Q 1.87 | L 2.2 | Y 1.93
V15: K 2.75 | Q 3.05 | F 2.82 | H 2.6 | S 3.16 | I 2.51 | A 1.79 | N 2.31 | L 2.06 | G 1.98 | Y 1.8 | P 3.13 | C 3.16 | W 2.43 | R 2.32 | D 1.77 | M 1.56 | E 2.08
L6: S 3.28 | Y 3.5 | P 3.81 | F 3.14 | W 2.54 | A 1.91 | K 1.96 | G 2.56 | T 3.04 | C 2.78 | V 2.54 | H 1.55 | R 2.89 | M 2.02 | Q 4.57 | N 2.75
L7: M 1.55 | Y 2.13 | D 1.3 | N 1.71 | F 2.04 | H 2.34 | G 3.06 | C 2.54 | E 2.69 | I 2.79 | T 2.6 | R 1.49 | Q 2.34 | K 1.98 | A 1.25 | V 2.15 | W 1.94 | P 2.49 | S 1.6
V18: S 3.17 | E 2.44 | F 1.24 | N 3.8 | K 3.09 | R 2.94 | C 2.1 | W 2.75 | H 3.04 | P 2.32 | I 1.87 | T 3.38 | Q 2.87 | D 2.79 | G 2.45 | L 2.62 | A 3.03 | M 3.82
G14: D 2.97 | E 1.92 | Y 3.29 | Q 1.69 | S 1.53 | M 1.74 | K 1.96 | F 4.07 | C 2.4 | V 2.18 | L 3.4 | R 2.06 | A 2.83 | H 1.82 | T 1.94 | N 2.03 | P 1.33
R1: S 2.27 | V 1.52 | Y 2.8 | T 1.37 | W 3 | P 2.08 | Q 1.79
R8: V 2.87 | M 2.17 | A 1.42 | H 3.25 | F 2.47 | L 3.02 | K 2.33 | G 1.46 | C 2.36 | Q 2.09 | I 3.12 | W 1.83 | D 2.57 | S 2.96 | N 1.78
D11: Y 3.81 | V 2.46 | R 2.85 | S 2.32 | N 1.66 | I 2.43 | C 2.06 | P 1.85 | A 3.02 | K 3.43 | L 2.46 | E 1.97 | T 2.51
F13: S 1.59 | T 1.97 | N 1.26 | K 2.2 | W 3.5 | R 2.34 | H 1.86 | D 3.29 | Y 1.72 | E 2.74 | P 1.25 | Q 1.61 | L 2.56 | G 2.04 | A 1.3 | M 2.21
L9: D 2.1 | I 2.52 | F 1.76 | M 1.54 | V 2.38 | R 1.7 | E 1.65 | Q 2.88 | S 1.76 | G 3.55 | K 1.98 | P 3.32 | T 2.51 | N 2.37 | Y 2.89
V17: W 2.41 | R 1.52 | M 2.49 | Y 2.83 | Q 1.25 | E 2.58 | N 2.35 | A 1.67 | P 1.86 | S 1.36 | T 2.11 | C 1.06 | F 2.19 | K 2.65 | G 3.41 | D 2.06 | L 2.96 | H 2.9 | I 3.4
I19: Y 2.79 | H 1.25 | V 1.63 | G 1.58 | W 1.96 | D 2.76 | R 3 | T 2.84 | F 2.18 | S 1.95 | N 2.67 | L 1.45 | P 1.47 | A 3.02 | K 2.52 | C 2 | Q 1.37
M5: E 2.43 | L 2.13 | F 2.15 | A 3.9 | N 1.93 | T 3.18 | K 4.13 | Q 2.11 | R 1.83 | H 3.79 | S 2.93 | D 2.28 | Y 2.57 | I 2.23 | C 3.05
T20: M 1.44 | W 3.05 | C 1.8 | K 3.31 | E 1.53 | A 2.68 | N 1.21 | S 3.06 | Q 2.26 | F 1.3 | I 2.75 | V 2.82 | G 1.98 | Y 1.97 | R 2.34 | D 2.52 | L 2.3 | P 2.72
